The nanobody polyreactivity screen of Harvey et al. (2022)

Test: yeast display, Sf9 membrane polyspecificity reagent, FACS + sequencing; frameworks hold sequencing errors
In short: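 Genes from sorted yeast were amplified by colony PCR, read by MiSeq 2 × 250 sequencing and filtered on CDR length. These cells carried a synthetic nanobody library in Saccharomyces cerevisiae BJ5465 and were sorted by FACS into low and high (top ~1%) gates on anti-HA and streptavidin fluorescence. Polyreactivity is labelled according to the gate of origin.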

Sequence	polyreactivity (PSR sort gate)
QVQLVESGGGLVQAGGSLRLSCAASGLISWLYVMGWYRQAPGKERELVAAIRYSGGRTYYADSVKGRFTISRDNAKNTVYLQMNSLKPEDTAVYYCAAEEQVVKAHGDYWGQGTQVTVSS	low polyreactivity
QVQLVESGGGLVQAGGSLRLSCAASGLIVGGYTMGWYRQAPGKERELVAAIDSGGSTKYADSVKGRFTISRDNAKNTVYLQMNSLKPEDTAVYYCAARDYYAWRYRYHHEVSEFDYWGQGTQVTVSS	low polyreactivity
QVQLVESGGGLVQAGGSLRLSCAASGLIYWYAMGWYRQAPGKERELVAAISSNGGSTYYADSVKGRFTISRDNAKNTVYLQMNSLKPEDTAVYYCAAEDYYIYREPYDYWGQGTQVTVSS	low polyreactivity
QVQLVESGGGLVQAGGSLRLSCAASGLIYYRNAMGWYRQAPGKERELVAAISSDGSTYYADSVKGRFTISRDNPKNTVYLQMNSLKAEDTAVFYCAADYREFDAYGAARTLDFDYWGQGTQVTVSS	low polyreactivity
QVQLVESGGGLVQAGGSLRLSCAASGLIYYRYAMGWYRQAPGKERELVAAITTNGARTYYADSVKGRFTISRDNAKNTVYLQMNSLKPEDTAVYYCAAYGAGKFWAEHNYWGQGTQVTVSS	high polyreactivity
QVQLVESGGGLVQAGGSLRLSCAASGLNFVQYVMGWYRQATGKERELVAAITDDGNTYYADSVKGRFTISRDNAKNTVYLQMNSLKPEDTEVYYCNAVLRSYDFWPGYGYWGQGTQVTVSS	low polyreactivity
QVQLVESGGGLVQAGGSLRLSCAASGLNFWLNAMGWYRQAPGKERELVAAISRGGSTNYADSVKGRFTNSRDNAKNTVYLQMNSLKPEDTAVYYCAAGSRRAACYDYSYPYGYWGQGSQVTVSS	high polyreactivity
QVQLVESGGGLVQAGGSLRLSCAASGLPFRFNALGWNRQAPGKERELVARISAGGGSTYYADSVKGRFTISRDNAKNTVYLQMNSLKPEDTAVYYCAVDKSTEFSSGPHVAGDDSWGQGTQVTVSS	low polyreactivity
QVQLVESGGGLVQAGGSLRLSCAASGLSSGFNVMGWYRQAPGKERELVAAIRSTGSPKYADSVKGRFTISRDNAKNTVYLQMNSLKPEDTAVYYCFRYSFYLNYWGQGTQVTVSS	high polyreactivity
QVQLVESGGGLVQAGGSLRLSCAASGLTCTRNAMGWYRQAPGKEREFVAAIRWSAGSTYYADSVKGRFTISRDNAKNTVYLQMNSLTPEDTAVSYCNAALNVSGHYPNDYWGQGTQVTVSS	low polyreactivity
QVQLVESGGGLVQAGGSLRLSCAASGLTFADYAMGWYRQAPGKERELVAAISRRGGSTYYADSVKGRFTISRDNAKNTVYLQMNSLKPEDTAVYYCAAYAYDVAFKRYKFDYWGQGTQVTVSS	high polyreactivity
QVQLVESGGGLVQAGGSLRLSCAASGLTFAGYAMGWYRQAPGKERELVAAITYSTGRTYYADSVKGRFTISRDNAKTTVYFQMNSLKPEDTAVYYCAALLRGQDRTMDYWGQGTQVTVSS	high polyreactivity
QVQLVESGGGLVQAGGSLRLSCAASGLTFASYAMGWYRQAPGKERELVAAISSSGRTYYADSVKGRFTISRDNAKNTVYLQMNSLKPEDTAVYYCATRGLSRYYDYYYWGQGTQVTVSS	high polyreactivity
QVQLVESGGGLVQAGGSLRLSCAASGLTFASYAMGWYRQAPGKERELVARISRSGGSTYYADSVKGRFTISRDNAKNTVYLQMNSLKPEDTAVYYCAADYIFRRYPVGGIYDYDYWGQGTQVTVSS	high polyreactivity
QVQLVESGGGLVQAGGSLRLSCAASGLTFAWYAMGWYRQAPGKARELVAVISNGGSTNDADSVKRRFTISRDNAKNTVYLQMNSLKPDDTAVYYCAAGWVWSGNDYYYWGQGTQVTVSS	low polyreactivity
QVQLVESGGGLVQAGGSLRLSCAASGLTFAYYAMGWYRQAPGKDRELVAAISWNGGRTYYADSVKGRFTISRDNAKNTVYLQMNSLKPEDTAVYYCAAQVTSSFYWGQGTQVTVSS	high polyreactivity
QVQLVESGGGLVQAGGSLRLSCAASGLTFAYYAMGWYRQPPGKERELVAAITSGDGTNYADSVKGRFTISRDNAKNTVYLQMNSLKPEDTAVYYCATDTWSPGYDYWGQGTQVTVSS	low polyreactivity
QVQLVESGGGLVQAGGSLRLSCAASGLTFAYYVMGWYRQAPGKERELVATITRGGDTYYADSVKGRFTISRANAKNTVYVQMNSLTPEDTAVYYCNAVWRVKYRRGLDYWGQGTQVTVSS	high polyreactivity
QVQLVESGGGLVQAGGSLRLSCAASGLTFAYYVMGWYRQAPGKERELVATITRGGDTYYADSVKGRFTISRDNAKITVYLQMYSLKPEDTAVYYCNAYLRSGSMDYWGQGTQVTVSS	high polyreactivity
QVQLVESGGGLVQAGGSLRLSCAASGLTFDGNTMGWYRQAPGKERELVAAISIDGGNTYADSVKGRFTISRDNAKNTVYLQMNSLKPEDTAVYYDYWGQGTEVTVSS	low polyreactivity
QVQLVESGGGLVQAGGSLRLSCAASGLTFDNNAMGWYRQAPGTERELVAAISYRGSSTYYADSVKGRFTISRDNAKNTVYLQMNSLKPEDTAVYYCAADVVDLGRFDYWGQRTQVTVSS	low polyreactivity
QVQLVESGGGLVQAGGSLRLSCAASGLTFDPYAMGWYRQAPGKERELVADISDGASTYYADSVKGRFTMSRDNAKNTVYLQMNSLKPEDTAVYYCNVDVGWYAFTDAYDYWGQGTHVTVSS	low polyreactivity

Sequence	polyreactivity (PSR sort gate)
QVQLVESGGGLVQAGGSLRLSCAASGLTFDRYAMGWYRQAPGKERELVAAISGSGSSTYYADSAKGRFTISRDNAKNTVYLQMNSLKPEDTAVYYCAADRDLGYDTRYNYWGQGTQVTVSS	low polyreactivity
QVQLVESGGGLVQAGGSLRLSCAASGLTFDYYAMGWYRQAPGKERELVAAIDWSGGSTYYADSVKGRFTISRDNAMNTVYFQMNSLKPEDSAVYYCATESDDSGMDYWGQGTQVTVSS	low polyreactivity
QVQLVESGGGLVQAGGSLRLSCAASGLTFDYYAMGWYRQAPGKERELVAAISIGGSTNYADSVKGRFTISRDNAKNNVYLQMNSLKPEDTAVYYCAAQGYLRLRTHFNYWGQGTQVTVSS	low polyreactivity
QVQLVESGGGLVQAGGSLRLSCAASGLTFDYYVMGWYRQAPGKERELVATISWSGDITYYADSVKGRFTISRDNAKNTVYLQMNSLKPEDTAVYYSATDKSYSSWSAQYDYWGQGTQVTVSS	low polyreactivity
QVQLVESGGGLVQAGGSLRLSCAASGLTFEWYAMGWYRQAPGKERELVAAISWNGGSTYYADSVKGRFTISRDNAKNTVYLQMNSLKPEDTAVYYCATSSPRRYYWGQGTLVTVSS	high polyreactivity
QVQLVESGGGLVQAGGSLRLSCAASGLTFEYNAMGWYRQAPGKERELVAAITSGDNTYYADSVKGRITISRDNAKNTVYLQMNSLKPEDTAVYYCAKYRWNWRYVSRGDSWGQGTQVTVSS	high polyreactivity
QVQLVESGGGLVQAGGSLRLSCAASGLTFFRNAMGWYRQAPGKEREFVAGITSTDGSTYYADSVKGRFTISRDNAKNTVYLQMNSLKPEDTAVYYCAAAYRVRGRTYDAWGQGTQVTVSS	high polyreactivity
QVQLVESGGGLVQAGGSLRLSCAASGLTFFYYAMGWYRQAPGKERELVAGISRSGGSTYYADSVKGRFTISRDNAKNTVYLQMKSLKPEDTAVYYCAKRTLVASYIYREGEYWGQGTQVTVSS	high polyreactivity
QVQLVESGGGLVQAGGSLRLSCAASGLTFGAYAMGWYRQAPGKEREFVAAITYSGGSTNYADSVKGRFTISRDNAKNTVYLQMISLKPEDTAVYYCNAGYYSPWAFYPYDYWGQGTQVTVSS	high polyreactivity
QVQLVESGGGLVQAGGSLRLSCAASGLTFGAYAMGWYRQAPRKEREFVAAITYSGGSSNYADSVKGRFTISRDNAKNTVYLQMNSLKPEDTAVYYCNAGYYSPWAFYPYDYWGQGTQVTVSS	high polyreactivity
QVQLVESGGGLVQAGGSLRLSCAASGLTFGDYALGWYRQAPGKDRELVAVISRSGGSTYYADSVKGRFTISRDNAKNTVYLQMNSLKPEDTAVYYCAAEYYSYRYDGDYWGQGTQVTVSS	low polyreactivity
QVQLVESGGGLVQAGGSLRLSCAASGLTFGDYVMGWYRQAPGKERELVATITSDGGTTYADSVKGRFTISRDNAKNTVYLQMNSLKPEDTAVYYCAAGVTGPSDDYDYWGQGTQVTVSS	low polyreactivity
QVQLVESGGGLVQAGGSLRLSCAASGLTFGGNAMGWYRQAPGKERELVAAISWSDDTTDYADSVKGRFTISRDNGKYTVYLQMNSLKPEDTAVYYCAARLPFEHVDYWGQGTQVTVSS	low polyreactivity
QVQLVESGGGLVQAGGSLRLSCAASGLTFGHYAMGWYRPAPGKERELVAAITSGGRTYYADSVKGRFTISRDNAKYTVYLQMNSLKPEDTAVYYCATRGPRYRYYYWGQGTQVTVSS	high polyreactivity
QVQLVESGGGLVQAGGSLRLSCAASGLTFGIYAMGWYRQAPGKERELVATISWRGGSTYYADSVKGRFTISRDNAKNTVYLQMNSLKPEDTAVYYCNADNEYRLGYWDDSCGQGTQVTVSS	low polyreactivity
QVQLVESGGGLVQAGGSLRLSCAASGLTFGLNALGWYRQAPGKERELVAAITWSGGSTYYADSVKGRFTISRDNAKNTVYLQMNSLKPEDTAVYYCATDNWSVNGGYNYWGQGTQVTVSS	low polyreactivity
QVQLVESGGGLVQAGGSLRLSCAASGLTFGLNAMGWYRQAPGKEREVVAAITWSGGSTYYADSVKGRFTISRDNAKNTVYLQMNSLKPEDTAVYYCATDNWSVNGGYNYWGQGTHVTVSS	low polyreactivity
QVQLVESGGGLVQAGGSLRLSCAASGLTFGLNAMGWYSQAPGKERELVAAITWSGGSTYYADSVKGRFTISRDNAKNTVYLQMNSLKPEDTAVYYCATDNLSVNGGYNYWGQGTQVTVSS	low polyreactivity
QVQLVESGGGLVQAGGSLRLSCAASGLTFGPYAMGWYRQAPGKERELVAAITSGGNTNYADSVKGRFTISRDNAKNTVYLQMNSLKPEDTAVYYCATSYYLAYRSITPYDYWGQGTQVTVSS	low polyreactivity
QVQLVESGGGLVQAGGSLRLSCAASGLTFGSYAMGWYRQAPGKERELVAAISRSGGSTYYADSVMGRFTISRDNAKNTVYLQMNSLKPEDTAVYYCNAVNRYYAPTDRRVGYDYWGQGTQVTVSS	high polyreactivity
QVQLVESGGGLVQAGGSLRLSCAASGLTFGSYAMGWYRQAPGKERELVAAISSRGGTTYYADSVKGRFTISRDNAKNTVYLQMNSLKPEDTAVYYCAARSRRYSYDNLGHWGQGTQVTVSS	high polyreactivity
